Laboratory results taken from patent publication US20230029341A1.

Target: HLA-A*02:01/NY-ESO-1 (modified, …) peptide-MHC on peptide-loaded T2 cells (human)
Experiment: cell-based or functional assay

EC50[nM] of MAGE-A3 peptide for activator C563 in Jurkat NFAT-luciferase cells co-expressing this inhibitor; T2 cells with 50 uM NY-ESO-1 peptide: > 10000 nM
Substance: C2057 + C2058 (TCR 1G4:α95LY alpha ECD and beta ECD, each fused to LILRB1 TM and ICD)
